Paper PMC7659722 (The Journal of Cell Biology, 2020)

Target: the molecule itself
Test: SDS-PAGE

B1: recombinant human FIT2 WT, 3FLAG-tagged (enzyme, UniProt Q8N6M3 1-262, looked up)
chain: MEHLERCEWLLRGTLVRAAVRRYLPWALVASMLAGSLLKELSPLPESYLSNKRNVLNVYFVKVAWAWTFCLLLPFIALTNYHLTGKAGLVLRRLSTLLVGTAIWYICTSIFSNIEHYTGSCYQSPALEGVRKEHQSKQQCHQEGGFWHGFDISGHSFLLTFCALMIVEEMSVLHEVKTDRSHCLHTAITTLVVALGILTFIWVLMFLCTAVYFHNLSQKVFGTLFGLLSWYGTYGFWYPKAFSPGLPPQSCSLNLKQDSYKK
**Q.** Does B1 bind?
**A.** binds
